The results in this text go back to patent CN111434683A.

For test [1], the target named is H7N9病毒的HA蛋白(购自ACROBiosystems) (H7N9 influenza virus). The test is described as follows: ELISA, negative control on coated HA.
Test [2] deals with H7N9病毒 A/Anhui/1/2013 (H7N9 influenza virus A/Anhui/1/2013). The test is described as follows: cell-based or functional assay.
In test [3] the target is H7N9病毒的HA蛋白(购自ACROBiosystems) (H7N9 influenza virus).
Test [4] shares this target. The test is described as follows: ELISA, supernatant of transfected 293F cells on coated HA.

Several values for one entry are separate records, joined by “and”; a condition that tells them apart may be missing. Equal values may be shown once.

As for 阴性对照, in test [1], the 450nm was 0.0675 OD450 and 0.0554 OD450.

B1: 抗H7N9全人源单克隆抗体8D11 (antibody, V domains shown)
VH: QVQLVESGAEVKKPGASVKVSCKASGYIFFTSYDINWVRQATGQGLEWMGWMNPDSGDTGFAQKFQGRVTMTRNTSITTAYMELSSLTSEDTAVYYCATGNADCSGGSCYNWFDPWGQGTLVTVSS
VL: SSELTQDPAVSVALGQTVRITCQGDRLRSYTYASWYQQKPGQAPVLVIYGKNNRPSGIPDRFSGSSSGNTASLTITGAQAEDEADYYCNSRTSGYHLVFGGGTKLTVLV
With B1, the IC50 (微量中和-ELISA, MDCK细胞) in test [2] came out at 0.89 µg/mL. The molecule further had an equilibrium dissociation constant (Kd) in test [3] of 8.3 nM. The 450nm in test [4] was 0.956 OD450 and 0.981 OD450 and 0.742 OD450.
